B1: PEX13 (protein, UniProt P80667 1-386, looked up)
Peroxisomal membrane protein …: MSSTAVPRPKPWETSASLEEPQRNAQSLSAMMTSNQQDSRPTEESNNSNSASESAPEVLPRPAALNSSGTYGESNTIPGIYGNSNYGIPYDNNPYSMNSIYGNSIGRYGYGGSYYGNNYGSFYGGGYGAGAGYGMNNGSGLGESTKATFQLIESLIGAVTGFAQMLESTYMATHNSFFTMISVAEQFGNLKEMLGSFFGIFAIMKFLKKILYRATKGRLGIPPKNFAESEGSKNKLIEDFQKFNDSGTINSNEKATRRKISWKPLLFFLMAVFGFPYLLNKFITKLQTSGTIRASQGNGSEPIDPSKLEFARALYDFVPENPEMEVALKKGDLMAILSKKDPLGRDSDWWKVRTKNGNIGYIPYNYIEIIKRRKKIEHVDDETRTH
B2: SHO1 (protein, UniProt P40073 1-367, looked up)
High osmolarity signaling …: MSISSKIRPTPRKPSRMATDHSFKMKKFYADPFAISSISLAIVSWVIAIGGSISSASTNESFPRFTWWGIVYQFLIICSLMLFYCFDLVDHYRIFITTSIAVAFVYNTNSATNLVYADGPKKAAASAGVILLSIINLIWILYYGGDNASPTNRWIDSFSIKGIRPSPLENSLHRARRRGNRNTTPYQNNVYNDAIRDSGYATQFDGYPQQQPSHTNYVSSTALAGFENTQPNTSEAVNLHLNTLQQRINSASNAKETNDNSNNQTNTNIGNTFDTDFSNGNTETTMGDTLGLYSDIGDDNFIYKAKALYPYDADDDDAYEISFEQNEILQVSDIEGRWWKARRANGETGIIPSNYVQLIDGPEEMHR
B3: BOI1 (protein, UniProt P38041 1-980, looked up)
BEM1-interacting protein 1: MSLEGNTLGKGAKSFPLYIAVNQYSKRMEDELNMKPGDKIKVITDDGEYNDGWYYGRNLRTKEEGLYPAVFTKRIAIEKPENLHKSPTQESGNSGVKYGNLNDSASNIGKVSSHQQENRYTSLKSTMSDIDKALEELRSGSVEQEVSKSPTRVPEVSTPQLQDEQTLIQEKTRNEENTTHDSLFSSTADLNLSSESLKNISKSNISTKSLEPSSESVRQLDLKMAKSWSPEEVTDYFSLVGFDQSTCNKFKEHQVSGKILLELELEHLKELEINSFGIRFQIFKEIRNIKSAIDSSSNKLDADYSTFAFENQAAQLMPAATVNRDEIQQQISSKCNKLSSESSDRKSSSVTTELQRPSSVVVNPNFKLHDPAEQILDMTEVPNLFADKDIFESPGRAPKPPSYPSPVQPPQSPSFNNRYTNNNARFPPQTTYPPKNKNPTVYSNGLIPNSSTSSDNSTGKFKFPAMNGHDSNSRKTTLTSATIPSINTVNTDESLPAISNISSNATSHHPNRNSVVYNNHKRTESGSSFVDLFNRISMLSPVKSSFDEEETKQPSKASRAVFDSARRKSSYGHSRDASLSEMKKHRRNSSILSFFSSKSQSNPTSPTKQTFTIDPAKMTSHSRSQSNSYSHARSQSYSHSRKHSLVTSPLKTSLSPINSKSNIALAHSETPTSSNNKEAVSQPSEGKHKHKHKHKSKHKHKNSSSKDGSSEEKSKKKLFSSTKESFVGSKEFKRSPSELTQKSTKSILPRSNAKKQQTSAFTEGIRSITAKESMQTADCSGWMSKKGTGAMGTWKQRFFTLHGTRLSYFTNTNDEKERGLIDITAHRVLPASDDDRLISLYAASLGKGKYCFKLVPPQPGSKKGLTFTEPRVHYFAVENKSEMKAWLSAIIKATIDIDTSVPVISSYATPTIPLSKAQTLLEEARLQTQLRDAEEEEGRDQFGWDDTQNKRNSNYPIEQDQFETSDYLESSAFEYPGGRL
B4: PIN3 (protein, UniProt Q06449 2-215, looked up)
[PSI+] inducibility protein 3: SASLINRSLTNIRTELDFLKGSNVISNDVYDQINKSLPAKWDPANAPRNASPASLEYVEALYQFDPQQDGDLGLKPGDKVQLLEKLSPEWYKGSCNGRTGIFPANYVKPAFSGSNGPSNLPPPPQYKAQELQQIPTQNSAASSYQQQPFPPPSTNYYQQPQQQPQQAPPPQQQQQQQQHQSSHSHLKSFGSKLGNAAIFGAGASIGSDIVNNIF

system: 575 putative partners (preys) of 22 WT SH3-containing proteins; experiment: DHFR-PCA on solid medium, WT and SH3-deleted baits (Fig. 1B); type: cell-based, Saccharomyces cerevisiae; settings: number of PPIs; SH3 domain in its own protein; DHFR-PCA; Fig2D,S2F
Summary of the method: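 Interactions scored by DHFR protein-fragment complementation on solid medium using robotic pinning; preys (DHFR F[3] fusions) arrayed in duplicate with control borders. Baits carried C-terminal DHFR F[1,2]-FLAG tags, tested as wild type and as SH3-deleted versions carrying a flexible Gly/Ser stuffer.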

Row | Molecule | SH3-dependent PPIs
1 | B1 | 1
2 | B2 | 2
3 | B3 | 3
4 | B4 | 13
